Laboratory results: PMC5839066

Biological target: RFP-p62 (UniProt Q13501)
Test: co-IP; COS-7 cells cotransfected with HTT fragment and RFP-p62, 100 nM bafilomycin for 4 h; lysates in SDP buffer; p62 immunoprecipitated (anti-p62 MBL PM045) overnight at 4 °C; co-precipitated HTT blotted and normalised to input

- fold binding relative to cleavable mHTT: 2 fold
Substance: HTT aa1-1212 138Q-C6R (domain or fragment)
